Consider four substances from PMC12707363.

A short description of series [1]: SEC; analytical SEC (AdvanceBio SEC 200 Å) of the purified Int^N precursor alone; each protein diluted to 10 µM and incubated for 24 h at 15 °C before the run; monomer against soluble high-MW aggregates eluting at the void volume. Background: Size exclusion chromatography separates by hydrodynamic size, large species first.
The nature of series [2]: SEC; SEC of the Int^N precursors with the native single cysteine (Figure S3c), no reducing agent; conditions not shown.

In the case of MBP‐CP21^N(C43S)‐H6, the “percent soluble high-MW aggregates” value in series [1] was determined as 77%. Take MBP‐CP21^N‐H6: the percent aggregated species in series [2] was determined as 90%.

Consider MBP‐GOM^N(C57S)‐H6, for which the “percent soluble high-MW aggregates” value in series [1] is on record as 76%. Turning to MBP‐GOM^N‐H6, the percent aggregated species in series [2] is reported as 78%.
